Measured values as given in a protein production outcome set (Wang et al. 2014).

Assay: label from the status in PepcDB records
For “MVVSLCSPGKCRKGTIVSRASLRANEGRRIERSTIAPSDLPPFRSRVSQPELPVERADHDADSVADGGWQATLCALEALAGGVDEAAGTGDGRRLLWALTLDADGVVGTIEPLEQTHGARGWSKPRPVPLARVAEDDTLPQWDVRVARAIRRDASRNRRHVLDRAAAVVALVGHPAVVLSHAPTVPMEVVESAPSLEAVREGDRYVLRIVPPLREALAMEDFLPAAARQEAESLRQITVLQDGPRRLRVVRFTPAQQGAAKLIAGGLSVPADAQARLDSTLRALAGHFQIHADSSGEARERDPESRLRAEVAPVGRGISLRLVVTPLGVLGPRLAPGHGRAQLMATIGGETHVTYRDLDAEHAHVAEVFEALPFLVQQAPAGGEHTWTLDDPEDALTAIEVLPGLAGVIDLEWPRGRELRVLPADIAQLAVSVETGSEWFKLVGELRVAEGLVISLEKLVAWAHGHAGRFMPMAHGVYVALTRQLRDRLRDLAGVGDGVRDGIRVPLVAAPWLDDVLAGAGIDPDAHFRTRVKQLRAARGHDAPVPPTLVAELRPYQLEGFRWMMSLAEAGFGACLADDMGLGKTLQSLAVLLARAAGGPALVVAPTSVCGNWATEARRFAPALRVHVYADGDREAIVGQAAAHDLVIVSYNLLQQARKAFCDRHWHTVVADEAQSFKNPSSRRAQAMFALPADCRIALSGTPVENRLAELWAVMRFCVPGLLGSLARFNEHFANPIERSGARDPRQRLRRMIAPFVLRRTKAQVLDELPPRTELVIRVTPEPTEAAHYEALRRQALSEAERALLRPRKDKKAPAAMTEPEARIHVLAQLMRMRRAACDPRLVTPDVGQPGAKVRAFAELAATLAANGHKTLVFSQFVDFLQMLRQALVDAGLAWQYLDGATPAGERTRRVAAFQAGEGDVFLISLKAGGFGLNLTAADYIVIADPWWNPAAEDQAMGRAHRIGQQRPVTVYRLIAAGTIEERIVDLHQGKRALADGVLDAMDGEAIGRDVPLPDVDELVGLLRR”, the protein production was “failed”. With “MVVTPLIVLLVSVLGYANLNSTELGKLKLNRLVPSRLAITLFISGTVILFGAVFATFLLLLLWGLITLVVSGSLSSAWVAMQTLTGSPGGVEPDKSSVLLLFTIGLVISFLSVTKFQSKADANWKQNNSKFLIHKLVDDELELFLLRALEMDDFIPHNGDESPDKRMLVRVVLSNRKVYIGNLIRCDITRGVCSNIVLVPMHSGYQDESTLELQLTEHYEKHYSAELSSDATELQIKDFLNQYSLTIPVHHLVTASLFDLTAYQKFLTEKLNSM” the protein production was “failed”. For “MVVVTGREPDSRRQDGAMSSSDAEDDFLEPATPTATQAGHALPLLPQEFPEVVPLNIGGAHFTTRLSTLRCYEDTMLAAMFSGRHYIPTDSEGRYFIDRDGTHFGDVLNFLRSGDLPPRERVRAVYKEAQYYAIGPLLEQLENMQPLKGEKVRQAFLGLMPYYKDHLERIVEIARLRAVQRKARFAKLKVCVFKEEMPITPYECPLLNSLRFERSESDGQLFEHHCEVDVSFGPWEAVADVYDLLHCLVTDLSAQGLTVDHQCIGVCDKHLVNHYYCKRPIYEFKITW”, the protein production was “not failed”. For “MVWDRATPFVIDLNVGAEDIDGLGHANNAVYVSWLERCAWRHSQFLGLDLTEYQRLDRAMAVVRHEIDYLASAYESDELQLATWITDWDRRLKMTRCFQLKRPADNLTLLRAQTTFVCIELSSGRPKRMPAEFIEGYGAAIPLEHHHHHH”, the protein production was “failed”. In the case of “MVWGTFLKNKKPYSIKRQLTLSVGLLVSALLLISLYFSFQSAKHEVEEVYDARLGQSAKLMLLTLSISTETDTLANHRELFDQWMKNIDSLAKSDEDKATKFGHPYEQNLVFQFYRDNKLIWSSTPNLRSLSSSFYNNGYADITKDGVQWRTFQLSLPQTEHENEYVVVAEKQKIRKEIIHEIALSTSIEQLLLLPTLLLLLFWLIDRYFRPINDLRTAITQRNVHRLDRIHVTDNTTELAPLVEALNSLLSELEQAWQREKRFTRAAAHELKTPLTILRLNVENALESNDPEQLRGDLHNILQGIERTDRLIHQLLTLAKVDSLSERVFDNVELTPLLQTVVADLAPLALRQDQDISLSPAEVALSGDKMLLEVLFRNLVDNAIRYSGAHSEIQVSVQENRNAIKILISDTGPEIPQETRERIFEQFYRGHSEKGDGAGLGMSICKDIATLHSAIIELIPRENGKNTFVVAFPKH”, the protein production is reported as “failed”. In the case of “MWAHCSAIARTMVYPSFFCSGDWLKVAAENLCPGDEAYILLAKDADDIRGVLPLVRKRNALGGTDLHYLGSDFYPDPLGLICSPADRADCAAALRNHLLNAPDWDRLILDFLLEDEPADWTLPGKPVSVAPFKVLPRDFSELLGEFKKKKRYNLRAMVKKLLDAGGELAASSGPESNIAYLDALFFLHEKRASERSLDSSFTGPRVQSLHRALVAASDNVRFFGLRLNGQMIAVIYGFEFCNRFFYYQVAHDPDHGHLSPGTVLLYLVIEACCVNGLTEFNFLQGDETYKGIWTNDSRILYRCVLNRSTWRSRVFSAVEESRGYVKRAMGLMSRGN”, the protein production is reported as “failed”.
